In publication PMC13371181, “A paracrine-to-autocrine shunt of GREM1 fuels colorectal cancer metastasis via ACVR1C” (Molecular Cancer, 2026):
“Also recorded” adds a separate entry of the source.

Experiments:
[1] = test system: BMP signaling (p-SMAD1/5/9 versus p-SMAD2/3); settings: sb4; cited from earlier work
From the text: Considering that GREM1 is a canonical antagonist of BMP and that BMPRs exert their function through phosphorylation of SMAD1/5/9 (p-SMAD1/5/9), we sought to determine whether GREM1 regulates EMT via BMPR superfamily pathways. […] This definitive exclusion of BMPR–SMAD1/5/9 involvement establish ...

HCT116 and SW480 cells = assay: EMT markers by immunoblotting and RT–qPCR; format: cell-based, human; settings: GREM1-CM + GREM1 BAb, + SB505124 (1 µM) or + different concentrations of sb4 (sb4: immunoblotting)
Description: (§1) To investigate the effect of secreted GREM1 on CRC cells, an in vitro GREM1 secretion system was established using HEK293 cells. Stably GREM1-expressing cells (pcDNA3.1-GREM1) and empty-vector transfected cells (pcDNA3.1) were cultured in DMEM/F12 medium with 10% FBS until 40% confluence. After complete removal of the normal culture medium, HEK293-GREM1 and HEK293-Vec cells were continuously cultured in DMEM/F12 medium without FBS for 5 days before medium collection. GREM1 or Vector conditioned medium (GREM1-CM/Vec-CM) was then centrifuged at 1000 rpm for 30 min and the supernatant was collected for further study.
(§2) Protein was extracted from the cells with RIPA buffer (Beyotime, P0018) or NP40 lysis buffer (Beyotime, P0013F) and separated by SDS-PAGE, and transferred to polyvinylidene difluoride membranes. […] Band intensity was quantified using Fiji (ImageJ) by grayscale analysis.
(§3) Total RNA was extracted using Trizol reagent (Invitrogen, 15596026). […] The SYBR Green Premix Pro Taq HS qPCR Kit (Accurate Biology, AG11701) was then used to quantify mRNA expression according to the manufacturer’s instructions. All results were calculated using the 2^−ΔΔCt method. […]

ACVR1C-ECD = assay: MST binding of ACVR1C-ECD-Fc to GREM1-His or ACTIVIN B-His; design: species or system human
From the text: (§4) Expi293F cells were transfected with a pcDNA3.4-ACVR1C-ECD-Fc and pcDNA3.4-ACVR1C-ECD-Fc-double mutant (E85A/T101A) expression vector to produce the target protein, which was subsequently purified using a Protein G column. Briefly, the coding sequence (CDS) of the human ACVR1C extracellular domain (ACVR1C-ECD, NM_145259.3, residues 1–113) fused to an Fc tag was cloned into the pcDNA3.4 vector. Expi293F cells were transfected with this construct, the supernatant was harvested 5 days post transfection.
(§5) MST was carried out on a Monolith NT.115 instrument (NanoTemper Technologies GmbH, MO-L011). To evaluate ACVR1C-ECD or ACVR1C peptide or ACVR1C-ECD-double mutant (E85A/T101A) binding to GREM1-His or ACTIVIN B-His, an increasing concentration of purified ACVR1C-ECD-Fc protein (0–27.5 µM) or ACVR1C peptide (0–2.3 µM) or ACVR1C-ECD-double mutant (0–27.5 µM) was incubated with 50 nM red-fluorescently labeled (NanoTemper Technologies GmbH, MO-L011) GREM1-His protein (R&D, 5190-GR) or ACTIVIN B-His protein (SinoBiological, 10814-H08H). Experiments were carried out in a PBS buffer pH 7.4 using premium capillaries (NanoTemper Technologies GmbH, MO-K025).

ACVR1C = assay: Co-immunoprecipitation of GREM1 and ACVR1C; format: binding, human; settings: HCT116 cells, HA-tagged GREM1, anti-HA
Description: (§6) HCT116 cells were transfected with the indicated plasmids and lysed in NP40 lysis buffer (Beyotime, P0013F) supplemented with protease inhibitor cocktail (Thermo, 78446). Lysates were incubated with the indicated Anti-Flag nanobody magarose beads (Ktsm-life, KTSM1338), Anti-HA nanobody magarose beads (Ktsm-life, KTSM1335) or Anti-GFP nanobody magarose beads (Ktsm-life, KTSM1334) overnight at 4 °C. The protein complex was washed four times with the NP40 lysis buffer, eluted with 1×loading buffer (Beyotime, P0015) by boiling for 5 min, followed by mass spectrometry and immunoblotting with the indicated antibodies.
(§7) Protein was extracted from the cells with RIPA buffer (Beyotime, P0018) or NP40 lysis buffer (Beyotime, P0013F) and separated by SDS-PAGE, and transferred to polyvinylidene difluoride membranes. Primary antibodies against GREM1 (1:1,000, SinoBiological, 50016-R117), ACVR1C (1:1,000, Thermo, PA587475), Flag-tag (1:1,000, CST, 14793), HA-tag (1:1,000, CST, 3724), E-Cadherin (1:1,000, CST, 3195), β-Catenin (1:1,000, CST, 8480), ZEB1 (1:1,000, CST, 3396), Snail (1:1,000, CST, 3879), SMAD2/3 (1:1,000, CST, 8685), p-SMAD2/3 (1:1,000, CST, 8828), SMAD1 (1:1,000, CST, 6944), p-SMAD1/5/9 (1:1,000, CST, 13820), TGFβ (1:1,000, CST, 3709), TGFβR1 (0.3 µg/mL, R&D, AF3025), β-actin (1:5,000, Beyotime, AF0003) and GAPDH (1:5,000, Beyotime, AF0006) were used in this study. Peroxidase-conjugated secondary antibody (1:10,000, Cell Signaling Technology, 7074, 7076) was used and signal was visualized using an enhanced chemiluminescence assay (ECL, Thermo), according to the manufacturer’s protocol. Band intensity was quantified using Fiji (ImageJ) by grayscale analysis.

HCT116 cells = assay: Subcutaneous transplantation of GREM1-CM-pretreated HCT116 cells in nude mice; format: in vivo, human cells in nude mice; settings: subcutaneous model, HCT116 cells pretreated with GREM1-CM (Figures S8A–C)
Description: For cecum-to-liver metastasis model, 1 × 10^6 MC38-luc cells were resuspended in 50 µL of PBS and injected into the cecum of GD mice or control mice (Grem1-CreER^T2/Rosa-LSL-DTA mice) (n = 6 mice in each group); 5 × 10^6 HCT116-luc cells transduced with lentivirus carrying a pLV or pLV-GREM1 were injected into the cecum of NOG mice (n = 5 mice in each group). SB505124 was administered via intraperitoneal injection at a dose of 10 mg/kg once every other day. The metastases were examined every 5 days post injection using an IVIS Lumina Imaging System. Mice were euthanized between 2 and 6 weeks after injection. […] Mice were euthanized 4 weeks after injection. The tumor tissues were collected for further evaluation.
Figure S8. SB505124 inhibits GREM1-CM-induced EMT and metastasis of CRC in vivo. […] D, RT–qPCR analysis of epithelial marker CDH1 and mesenchymal markers CTNNB1, SNAI1, ZEB1 in subcutaneous tumor tissues from the indicated treatment groups. n = 3 independent experiments. E-G, Representative IF images (E) and quantification (F, G) of E-CAD (green), SNAIL (red), and DAPI (blue) staining in tumors from the indicated groups. […] H, I, Representative IVIS images (H) and quantification (I) of NOG mice that were injected with HCT116-luc cells in the cecum wall and treated with either SB505124 or vehicle via abdominal injection. Liver metastases were imaged and quantified using the IVIS Lumina Imaging System (n = 5 mice per group). For B–D, F, G and I, data are presented as mean ± s.e.m. P values were calculated using one-way ANOVA with Bonferroni multiple-comparison test (B–D, F, and G) or two-tailed Student’s t-test (I).

TGFβR1 = assay: Co-immunoprecipitation of GREM1 and TGFβR1; format: binding, human; settings: HCT116 cells, HA-tagged GREM1, anti-HA
Description: as §6, §2

[2] = test system: TGFβ or TGFβR1 in CRC cells; assay: Immunoblotting TGFβ and TGFβR1 expression; format: cell-based, human; settings: CRC cells (HCT116, SW480), rhGREM1 gradient
From the text: as §7

SW480 and HCT116 cells = assay: Endogenous GREM1 expression by RT–qPCR and immunoblotting; format: cell-based, human; settings: increasing concentrations of rhGREM1, RT–qPCR (n = 3) and immunoblotting
From the text: as §7, §3

[3] = test system: CRC cells (SW480, HCT116, and MC38); assay: GREM1 withdrawal assay, RT–qPCR and immunoblot; format: cell-based, human (SW480, mouse (MC38); settings: rhGREM1 or rmGrem1 200 ng/mL 24 h, then GREM1-free medium 2 and 4 days
Description: To determine whether tumor cells that have acquired signaling autonomy can sustain GREM1 expression in the absence of external stimulation, we performed a GREM1 withdrawal assay. CRC cells (SW480, HCT116, and MC38) were first pulsed with rhGREM1 or recombinant mouse GREM1 (rmGrem1) for 24 h to initiate the signaling response. The medium containing rhGREM1 or rmGrem1 was then thoroughly removed, replaced with fresh GREM1-free medium, and the cells were cultured for an additional 4 days. […] This persistent, self-sustaining expression supports our conclusion that the initial rhGREM1 or rmGrem1 stimulation triggers a positive feedback loop of GREM1 transcription within CRC cells.
as §2, §3

[4] = test system: BMPR–SMAD1/5/9 pathway in HCT116 or SW480 cells; assay: Immunoblotting p-SMAD1/5/9 (BMPR pathway); format: cell-based, human; settings: rhGREM1 gradient
From the text: as §7

[5] = test system: ACVR1C–SMAD2/3 pathway in HCT116 and SW480 cells; assay: Immunoblotting p-SMAD2/3 (ACVR1C pathway); format: cell-based, human; settings: SW480 and HCT116 cells, increasing concentrations of rhGREM1
Description: as §1, §2

GREM1 = target: T1, GREM1 (Homo sapiens, UniProt O60565); assay: MST binding of ACVR1C-ECD double mutant (E85A/T101A) to GREM1-His; settings: double mutant 0–27.5 µM vs 50 nM red-labeled GREM1-His, PBS pH 7.4
T1 construct: His; purchased R&D 5190-GR
T1 sequence (O60565 25-184): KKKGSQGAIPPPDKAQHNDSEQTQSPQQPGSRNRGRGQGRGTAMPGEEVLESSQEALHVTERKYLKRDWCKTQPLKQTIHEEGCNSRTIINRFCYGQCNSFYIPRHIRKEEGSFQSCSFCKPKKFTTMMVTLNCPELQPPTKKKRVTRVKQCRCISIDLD
From the text: as §4, §5

Brc1ccc(CSc2nc3ccccc3o2)cc1 [sb4]
p-SMAD1/5/9 selectivity [1]: exclusively increases p-SMAD1/5/9 without affecting p-SMAD2/3
GREM1-CM-induced EMT, effect of treatment (HCT116 and SW480 cells): failed to reverse GREM1-induced EMT

B1: GREM1: GREM1-His protein (R&D, 5190-GR) in MST; HA-tagged GREM1 in co-IP (protein)
chain: KKKGSQGAIPPPDKAQHNDSEQTQSPQQPGSRNRGRGQGRGTAMPGEEVLESSQEALHVTERKYLKRDWCKTQPLKQTIHEEGCNSRTIINRFCYGQCNSFYIPRHIRKEEGSFQSCSFCKPKKFTTMMVTLNCPELQPPTKKKRVTRVKQCRCISIDLD
modifications: left off: HA, end not stated, kept | mCherry, end not stated, kept
notes: GREM1-His protein (R&D, 5190-GR) in MST; HA-tagged GREM1 in co-IP
affinity for ACVR1C relative to ACTIVIN B, in words (ACVR1C-ECD): superior affinity
fold higher affinity for ACVR1C-ECD than ACTIVIN B (ACVR1C-ECD; GREM1 Kd versus ACTIVIN B Kd): 12.6 fold
Kd (ACVR1C-ECD; Monolith NT.115, ACVR1C-ECD-Fc 0–27.5 µM vs 50 nM red-fluorescently labeled His-protein, PBS pH 7.4, premium capillaries, n = 3 independent experiments, mean ± s.e.m.): 67.7 ± 10.3 nM
co-IP interaction with ACVR1C (ACVR1C): co-immunoprecipitates with ACVR1C; also recorded: interacted with ACVR1C specifically
effect on subcutaneous tumor proliferation (HCT116 cells): pro-proliferative effect
co-IP interaction with TGFβR1 (TGFβR1): no such interaction was detected; also recorded: no direct interaction

B2: rhGREM1: recombinant human GREM1 (protein)
chain: KKKGSQGAIPPPDKAQHNDSEQTQSPQQPGSRNRGRGQGRGTAMPGEEVLESSQEALHVTERKYLKRDWCKTQPLKQTIHEEGCNSRTIINRFCYGQCNSFYIPRHIRKEEGSFQSCSFCKPKKFTTMMVTLNCPELQPPTKKKRVTRVKQCRCISIDLD
modifications: red fluorescent label (NanoTemper, MO-L011) in the MST assays; left off: His, end not stated, kept
notes: recombinant human GREM1
TGFβ or TGFβR1 expression [2]: No changes were observed across all doses tested
endogenous GREM1 expression (SW480 and HCT116 cells): dose-dependent upregulation of tumor GREM1 expression
endogenous GREM1 expression after withdrawal [3]: not only maintained but in some cases further increased even after the withdrawal of exogenous GREM1; also recorded: maintained elevated endogenous GREM1 expression even after withdrawal of exogenous GREM1
p-SMAD1/5/9 [4]: suppressed the p-SMAD1/5/9
p-SMAD2/3, concentration gradient [5]: dose-dependent increase in p-SMAD2/3

B3: ACVR1C-ECD double mutant (E85A/T101A): human ACVR1C extracellular domain fused to an Fc tag, double mutant E85A/T101A (protein)
chain: ELSPGLKCVCLLCDSSNFTCQTEGACWASVMLTNGKEQVIKSCVSLPELNAQVFCHSSNNVTKTACCFTDFCNNITLHLPAASPNAPKLGPME
modifications: left off: Fc, end not stated, kept
binding of ACVR1C-ECD double mutant to GREM1 (GREM1): no detectable interaction
